The source of these data is patent US20020055615A1.

Ends that are not written are not given here.

Assay [1] addresses AM receptor (AM-R) on human tumor cell lines (human). In words: cell-based or functional assay.
Assay [2] has the same target. Put plainly: receptor binding on MCF-7 cells.
For assay [3] the target is unchanged. In words: displacement of 125I-AM from MCF-7 cells by unlabelled AM. In general terms: Displacement assays read how much labelled ligand stays bound in the presence of the test substance.
Assay [4] shares this target. Put plainly: 125I-AM (0.2 nM per 5×10^5 cells) binding to NCI-H1264 cells.

B1: adrenomedullin (AM) (peptide, UniProt P35318 95-146, looked up)
peptide: YRQSMNNFQGLRSFGCRFGTCTVQKLAHQIYQFTDKDKDNVAPRSKISPQGY-NH2
modifications: ends and bridges not checked; also: 125I-labelled as tracer in receptor assays
What is called Kd is the concentration at which binding is half-saturated. A low value points to a tighter complex. What is called IC50 is the concentration at which inhibition is half-maximal. High values mean weaker potency, low ones greater potency. In assay [1], B1 displayed an increase in cellular cAMP (ED50) of 5 nM and a maximum elevation of cellular cAMP (fold of control) of 3. Also, the Kd in assay [2] is 2 nM. In addition, in assay [3], the IC50 worked out at 10 nM. Moreover, in assay [4], the radioactivity bound (cpm) turned out to be 2260 cpm.
